# In patent US20180271864:
# Molecular target: T1, Flag-tagged human PZR (UniProt O95297)
# T1 sequence: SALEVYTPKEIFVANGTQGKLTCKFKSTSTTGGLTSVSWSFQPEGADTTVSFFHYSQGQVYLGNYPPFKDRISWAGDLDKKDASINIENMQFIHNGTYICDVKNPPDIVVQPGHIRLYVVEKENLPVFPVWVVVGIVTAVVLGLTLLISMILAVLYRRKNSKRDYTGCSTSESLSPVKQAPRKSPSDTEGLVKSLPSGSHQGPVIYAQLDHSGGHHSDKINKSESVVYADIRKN
substance,measurement,value
Src recombinant protein,"in vitro Src kinase assay, immunoblot with anti-pPZR (Y241 or Y263) antibodies",These results implicated c-Src as directly phosphorylating PZR at Shp2 binding sites
